Consider two substances from article PMC10243088.

In test [1] the target is ferroportin (human (endogenous in HEK 293 and iPSC-derived ECs)) (UniProt Q9NP59).
For test [2] the target is unchanged. The source holds these as a separate data set.
Test [3] has the same target. This is another data set of the same source.

Chain of UniProt Q9NP59 (Q9NP59 whole entry): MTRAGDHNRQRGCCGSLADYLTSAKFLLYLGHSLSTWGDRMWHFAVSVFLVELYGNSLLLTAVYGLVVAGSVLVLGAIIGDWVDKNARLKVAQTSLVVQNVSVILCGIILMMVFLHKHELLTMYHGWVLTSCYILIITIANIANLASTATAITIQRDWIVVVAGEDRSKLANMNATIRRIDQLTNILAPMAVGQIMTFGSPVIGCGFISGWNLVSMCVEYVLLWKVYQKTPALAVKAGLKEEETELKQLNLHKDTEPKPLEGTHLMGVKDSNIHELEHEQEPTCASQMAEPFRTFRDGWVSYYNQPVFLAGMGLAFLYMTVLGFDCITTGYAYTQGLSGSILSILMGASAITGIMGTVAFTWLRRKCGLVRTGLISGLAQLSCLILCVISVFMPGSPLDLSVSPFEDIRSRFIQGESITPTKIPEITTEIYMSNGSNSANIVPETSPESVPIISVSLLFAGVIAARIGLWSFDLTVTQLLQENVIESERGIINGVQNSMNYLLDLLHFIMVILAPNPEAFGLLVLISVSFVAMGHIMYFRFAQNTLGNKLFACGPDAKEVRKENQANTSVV

Consider hepcidin (peptide), for which, in test [1], the membrane Fpn in HEK 293 cells with 500 nM hepcidin, 5-60 min (membrane protein isolation, immunoblot), compared to holo-Tf treatment came out at 70%.

In test [2], “holo-transferrin (iron bound transferrin) (from UniProt P02787 20-698) (natural protein)” displayed a Fpn protein level in iPSC-derived ECs after 8 h with increasing concentrations of holo-Tf in the basal chamber (immunoblot), from 0.1 μM of 50%. This substance also registered a membrane Fpn in HEK 293 cells with 0.25 μM holo-Tf, 5-60 min (membrane protein isolation, immunoblot), compared to control in test [1] of 20%. The substance also registered a Fpn protein level in iPSC-derived ECs with 0.25 μM holo-Tf over time, intervals of 1 h up to 5 h (immunoblot) in test [3] of 50%.
